Experimental data published in patent US6770740B1, “Crosslinked DNA condesate compositions and gene delivery methods” (The Regents of the University of Michigan, priority 1999, dated 2004).
Where no end group is shown, it is not given here. The star is where a group is joined. Carboxymethyl = O=C(O)C*

Assays:
[1] = QELS particle size and zeta potential of peptide DNA condensates, Example 6; type: physicochemical; details: charge ratio 4:1, 50 μg/ml DNA in HBM; for Particle Size (nm): 90°, average and SD of three, No particles formed; for Zeta Potential (mV): average and SD of ten
Procedure: The particle size and zeta potential of peptide DNA condensates were determined by quasielastic light scattering (QELS) using a Brookhave ZetaPlus™. Particle size analysis was performed in triplicate at a DNA concentration of 50 μg/ml in HBM at a charge ratio of 4:1 and a scattering angle of 90°. Data analysis utilized a multimodal volume distribution option included with the instrument. Zeta potential was also determined using 50 μg/ml peptide DNA condensates prepared at a 4:1 charge ratio in HBM. The reported zeta potential was averaged from ten determinations.

HepG2 cells = test: Cell uptake of 125I-DNA condensates in HepG2 cells, Example 5; type: cell-based; details: HepG2, 5 h transfection
Procedure: Iodinated plasmid DNA (pCMVL) was prepared with specific activity of 300 nCi per μg of DNA as described previously (Terebesi et al., 1998). Prior to forming DNA condensates, the specific activity of the ^125I DNA was adjusted to 4.5 nCi μg of DNA by combining with unlabeled plasmid. DNA condensates were prepared using AlkCWK18 or peptide II as described above. Peptide ^125I-DNA condensates (10 μg) were used to transfect HepG2 and COS 7 cells for 5 h according to the procedure described above. The radioactive media was removed, cells were washed once with 2 ml of 1 M sodium chloride and three times with 2 ml of cold PBS and then harvested with 1 ml of lysis buffer. The cell-associated radioactivity from triplicate transfections was quantified by gamma counting.

[2] = Shear stress stability (salt sonication assay), Example 6; type: physicochemical; details: 30 sec sonication; highest tested 2.5 M
Procedure: The relative stability of peptide DNA condensates were examined using a salt sonication assay (Adami and Rice, 1999). Peptide DNA condensates (200 μl of 50 μg/ml) were formed as described above, incubated at RT for 30 min and then combined with 0-200 μl of 5 m […] and normalized to 400 μl with HBM to achieve a final sodium chloride concentration of 0, 0.2, 0.4, 0.8, 1.0, 1.5, 2.0 and 2.5 M. Each sample was sonicated for 30 sec with a 100 W Microson™ XL-2000 ultrasonic probe homogenizer (Kontes, Vineland N.J.) with a vibrational amplitude of 5 fragment uncondensed DNA. DNA condensates were digested with 30 μg to trypsin for 12 h at 37° C., electrophoresed on a 1% agarose gel electrophoresed in TEA buffer for 2 h, then visualized by ethidium bromide staining and destaining prior to photography on a transilluminator.

[3] = Shear stress stability of cross-linked DNA condensates (salt sonication), Example 5; type: physicochemical; details: 30 sec sonication; highest lane 2.5 M
Procedure: Peptide DNA condensates (200 μl of 50 μg/ml) were formed and incubated at RT for 30 min and then combined with 0 to 200 μl of 5 M sodium chloride and normalized to 400 μl with HBM to achieve a final sodium chloride concentration of 0, 0.2, 0.4, 0.8, 1.0, 1.5, 2.0, and 2.5 M. Each sample was sonicated for 30 sec with a 100 W Microson™ XL-2000 ultrasonic probe homogenizer (Kontes, Vineland N.J.) with a vibrational amplitude of 6 to fragment uncondensed DNA (Adami et al., 1998). DNA condensates were digested with 30 μg of trypsin for 12 h at 37° C. then electrophoresed on an agarose gel and visualized by ethidium bromide staining.

[4] = test system: HepG2, COS 7 and CHO cells; test: Luciferase gene expression, result stated for each of three cell lines, Example 6; type: cell-based
Procedure: HepG2 cells (1.5×10^5) were plated on 6×35 mm wells and grown to 50% confluencey in MEM supplemented with 10% FBS, penicillin and streptomycin (100 U/ml), sodium pyruvate (100 mM), and L-glutamine (2 mM). Transfections were performed in MEM (2 ml per 35 mm well) with 2% FBS with and without 80 μM chloroquine. Peptide DNA condensates (10 μg of DNA of 0.2 ml HBM) were added dropwise to triplicate wells. After a 5 h incubation at 37° C., the medium was replaced with MEM supplemented with 10% FBS. After 24 h, cells were washed with ice-cold phosphate buffered saline (calcium and magnesium free) and then treated with 0.5 ml of ice-cold lysis buffer (25 mM) Tris chloride pH 7.8, 1 mM EDTA, 8 mM magnesium chloride, 1% Triton X-100, 1 mM DTT) for 10 min. […]
Lysis buffer (300 μl), sodium-ATP (4 μl of a 180 mM solution, pH 7, 4° C.) and cell lysate (100 μl, 4° C.) were combined in a test tube, briefly mixed and immediately placed in the luminometer. Luciferase relative light units (RLU) were recorded on a Lumat™ LB 9501 (Berthoid Systems, Germany) with 10 sec integration after automatic injection of 100 μl of 0.5 mM D-luciferin (prepared fresh in lysis buffer without DTT). […] Protein concentrations were measured by Bradford assay using bovine serum albumin as a standard (Bradford, 1976). […]

[5] = QELS particle size and zeta potential of cross-linking peptide DNA condensates, Example 5; type: physicochemical; details: for Particle Size Mean Diameter, Oxidized, 15° / Particle Size Mean Diameter, Oxidized, 90°: HBM after 2 h incubation, 50 μg/ml DNA, 0.4 nmol peptide per μg DNA; for Particle Size Mean Diameter, Oxidized, 15°: scattering angle 15°; for Particle Size Mean Diameter, Oxidized, 90°: scattering angle 90°; for Particle Size Mean Diameter, Saline: HBM with added saline (0.15 M) after 15 min; for Particle Size Mean Diameter, Reduced: following addition of TCEP (1 mM)
How it was run: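 Condensates at 50 μg/ml DNA in HBM, 0.4 nmol peptide per μg DNA (charge ratio ~2:1); size by QELS at 15° and 90°, mean diameter from diffusion coefficient by unimodal cumulant analysis. Peptide IV series: 7.5-37.5 nmol peptide with 75 μg DNA, charge ratio 0.5-2.5; zeta potential averaged over 10 determinations.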

Substance	Particle Size (nm) [1] [nm]	Zeta Potential (mV) [1] [mV]	125I-DNA uptake, % of dose (HepG2 cells)	sodium chloride concentration up to which DNA condensates are stable [2] [M]	sodium chloride concentration up to which DNA is protected from sonicative fragmentation [3] [M]	lower gene expression in the absence of chloroquine relative to presence of 80 μM chloroquine ([4]; in each cell line)	Particle Size Mean Diameter, Oxidized, 15° [5] [nm]	Particle Size Mean Diameter, Oxidized, 90° [5] [nm]	Particle Size Mean Diameter, Saline [5] [nm]	Particle Size Mean Diameter, Reduced [5] [nm]	enhancement of gene expression over peptide 1 DNA condensates ([4]; in each cell line tested, charge ratio 4, 80 μM chloroquine) [fold]
Alk-S-Cys-Trp-Lys18 (C(Carboxymethyl)WKKKKKKKKKKKKKKKKKK) [AlkCWK18]	64 ± 11	26 ± 1	9.5 % of dose	0.4	0.4	10-15 fold	97	95	1215	74	–
Cys-Trp-Lys17-Cys (CWKKKKKKKKKKKKKKKKKC) [Peptide II]	53 ± 16	28 ± 9	8.7 % of dose	1	1.0	–	31	42	257	121	10 to 40
